B1: Retinal rod rhodopsin-sensitive cGMP 3',5'-cyclic phosphodiesterase subunit gamma (Homo sapiens), P18545 (parent)
chain: MNLEPPKAEFRSATRVAGGPVTPRKGPPKFKQRQTRQFKSKPPKKGVQGFGDDIPGMEGLGTDITVICPWEAFNHLELHELAQYGII
partner: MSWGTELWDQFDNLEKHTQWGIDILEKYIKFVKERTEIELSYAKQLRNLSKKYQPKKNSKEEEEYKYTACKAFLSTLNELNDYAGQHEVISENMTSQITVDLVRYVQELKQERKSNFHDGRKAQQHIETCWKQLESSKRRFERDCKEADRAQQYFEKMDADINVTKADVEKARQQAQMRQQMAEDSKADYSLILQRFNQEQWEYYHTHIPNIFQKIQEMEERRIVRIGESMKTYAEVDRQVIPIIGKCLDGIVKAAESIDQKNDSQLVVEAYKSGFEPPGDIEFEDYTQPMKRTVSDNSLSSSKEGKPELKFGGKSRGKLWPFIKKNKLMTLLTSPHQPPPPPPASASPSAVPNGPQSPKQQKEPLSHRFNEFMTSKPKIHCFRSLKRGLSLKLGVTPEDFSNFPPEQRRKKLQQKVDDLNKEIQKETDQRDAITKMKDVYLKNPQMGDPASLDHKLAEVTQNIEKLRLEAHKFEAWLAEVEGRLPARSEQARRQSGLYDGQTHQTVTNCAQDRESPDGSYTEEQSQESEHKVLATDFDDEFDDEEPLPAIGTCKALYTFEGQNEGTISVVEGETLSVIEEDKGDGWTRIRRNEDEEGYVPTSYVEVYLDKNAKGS
B2: Retinal rod rhodopsin-sensitive cGMP 3',5'-cyclic phosphodiesterase subunit gamma (Homo sapiens), P18545 (parent)
chain: B1 chain

Assays:
[1] = variants of: B1; details: with fnbp1_rat Fnbp1, Q8R511
[2] = variants of: B2; details: with pacn2_rat Pacsin2, Q9QY17
[3] = variants of: B2; details: with grb2_rat Grb2, P62994
[4] = variants of: B2; details: with src_rat Src

| Variant | effect of a mutation on the interaction [1] | effect of a mutation on the interaction [2] | effect of a mutation on the interaction [3] | effect of a mutation on the interaction [4] |
| --- | --- | --- | --- | --- |
| P20A | disrupting interaction | – | – | – |
| P23A | disrupting interaction | – | – | – |
| P20A | – | decreasing interaction | decreasing interaction | disrupting interaction |
| P23A | – | decreasing interaction | decreasing interaction | disrupting interaction |
